Experimental data reported in patent US7001748B2, “Methods of making polyketides using hybrid polyketide synthases” (The Board of Trustees of the Leland Stanford Junior …, priority 1999, dated 2006).

Target: T1, (5)M2+TE (Saccharopolyspora erythraea, UniProt Q03131+Q03133)
T1 construct: a single module of the DEBS PKS fused to the thioesterase (TE) termination region of module 6; made in house; host or cells: E. coli BL21(DE3); ACP4(4) from pNW8 (pET28a), phosphopantetheinylated in vitro with Sfp
Test: Labeling of holo-ACP4(4) with 14C-2a mediated by (5)M2+TE (back-transfer)
Format: biochemical
Details: presence and absence of (5)M2+TE
Procedure: Labeling of Holo-ACP4(4) with ^14C-2a Mediated by (5)M2+TE. Holo-ACP4(4) (20 μM) was incubated with 1 mM [1-^14C]-labeled 2a (custom synthesized by Amersham Pharmacia, specific activity 55 mCi/mmol) and 1 μM (5)M2+TE in reaction buffer C for 10 min at 30° C. The protein was precipitated with 75% acetone/H2O for 5 min at −80° C. After washing the pellet with 6.25% (w/v) TCA to remove excess salts followed by 500 μL of 75% acetone/H2O to remove residual, unbound 14 C-2a, the precipitated protein was resuspended in 8 μL of buffer A and 4 μL of SDS sample buffer, and resolved on a 4-20% SDS-PAGE gradient gel (Bio-Rad). The proteins were visualized with Coomassie blue stain and dried, and the radioactivity was detected either on a Packard InstantImager or by exposing the gel to X-ray film.

B1: holo-ACP4(4): DEBS ACP4 catalytic domain with its natural C-terminal linker, phosphopantetheinylated (protein)
chain: HHHHHHNVVDRLAGRSESDQVAGLAELVRSHAAAVSGYGSADQLPERKAFKDLGFDSLAAVELRNRLGTATGVRLPSTLVFDHPTPLAVAEHLRDRLFAASPAVDIGDRLDELEKALEALSAEDGHDDVGQRLESLLRRWNSRRADAPSTSAISEDASDDELFSMLDQRFGGGEDL
modifications: non-natural residues
notes: DEBS ACP4 catalytic domain with its natural C-terminal linker, phosphopantetheinylated
**Q.** For B1, which “radiolabeling of ACP by 14C-2a” value is on record?
**A.** radiolabeled only in the reaction containing (5)-M2+TE
